T1: Tbx6-DBD (T-domain) (mouse, UniProt P70327 90-277)
T1 sequence: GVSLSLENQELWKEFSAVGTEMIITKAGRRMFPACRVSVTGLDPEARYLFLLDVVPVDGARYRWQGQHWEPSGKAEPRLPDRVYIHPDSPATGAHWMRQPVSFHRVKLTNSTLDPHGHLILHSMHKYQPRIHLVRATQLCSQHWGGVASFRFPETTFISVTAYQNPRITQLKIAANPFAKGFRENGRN

T2: T-DBD (Brachyury T-domain) (mouse, UniProt P20293 41-224)
T2 sequence: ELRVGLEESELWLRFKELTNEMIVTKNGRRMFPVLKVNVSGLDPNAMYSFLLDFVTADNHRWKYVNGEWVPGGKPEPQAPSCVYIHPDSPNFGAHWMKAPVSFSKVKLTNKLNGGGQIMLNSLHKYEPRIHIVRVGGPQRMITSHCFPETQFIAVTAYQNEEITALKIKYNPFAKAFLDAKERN


Experiments:
Tbx6-DBD (T-domain) [1] = molecular target: T1, Tbx6-DBD (T-domain); experiment: quantitative EMSA; Hill coefficient 3.18; 25 mM HEPES pH 7.4, 75 mM NaCl, 1 mM DTT, 0.25 mM EDTA, 0.1% NP-40, 1 mM MgCl2, 10% glycerol, 10 µg/ml BSA, 0.1 mg/ml poly dI-dC; room temperature, 20 min (1 h); conditions: protein: recombinant; tags: N-terminal His (pET151/D-TOPO); Methods: removed by TEV; label: 32P 5' end label; blunt (annealed; only one strand given)
[2] = molecular target: T2, T-DBD (Brachyury T-domain); experiment: quantitative EMSA; Hill coefficient 14.42; 25 mM HEPES pH 7.4, 75 mM NaCl, 1 mM DTT, 0.25 mM EDTA, 0.1% NP-40, 1 mM MgCl2, 10% glycerol, 10 µg/ml BSA, 0.1 mg/ml poly dI-dC; room temperature, 20 min (1 h); conditions: protein: recombinant; tags: N-terminal His (pET151/D-TOPO), removed by TEV; chain copies: 2; label: 32P 5' end label; blunt (annealed; only one strand given)
Tbx6-DBD (T-domain) [3] = molecular target: T1, Tbx6-DBD (T-domain); experiment: quantitative EMSA; Hill coefficient 2.97; 25 mM HEPES pH 7.4, 75 mM NaCl, 1 mM DTT, 0.25 mM EDTA, 0.1% NP-40, 1 mM MgCl2, 10% glycerol, 10 µg/ml BSA, 0.1 mg/ml poly dI-dC; room temperature, 20 min (1 h); conditions: protein: recombinant; tags: N-terminal His (pET151/D-TOPO); Methods: removed by TEV; label: 32P 5' end label; blunt (annealed; only one strand given)

Row | Binder | Kd (Tbx6-DBD (T-domain) [1]) [nM] | Kd [2] [nM] | Kd (Tbx6-DBD (T-domain) [3]) [nM]
1 | Dll1 BS2 (dsDNA) DNA 1: TCCCGAGGTGTGATTCTTGGA DNA 2: TCCAAGAATCACACCTCGGGA | 1300 | 13900 | –
2 | Dll1 BS1 (dsDNA) DNA 1: TCACTGTAGGTGTTGCTGTCCTGT DNA 2: ACAGGACAGCAACACCTACAGTGA | – | – | 1530
